Data: PMC4766841

Biological target: CIB1N-DBD (CIB1N (1-170) fused to the Gal4 DNA binding domain) (Arabidopsis thaliana) (UniProt Q8GY61)
Test: two-hybrid

Chain of UniProt Q8GY61 (Q8GY61 1-170): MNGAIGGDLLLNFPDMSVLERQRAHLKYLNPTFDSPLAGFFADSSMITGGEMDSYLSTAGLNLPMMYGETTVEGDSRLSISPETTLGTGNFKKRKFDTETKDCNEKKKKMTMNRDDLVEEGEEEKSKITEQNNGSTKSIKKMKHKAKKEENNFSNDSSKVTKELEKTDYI

CRY2PHR-AD (CRY2PHR fused to the Gal4 activation domain) (from UniProt Q96524 1-498) (domain or fragment)
β-Gal Light: 47.1
